Results from patent US20160228570A1 (QUEEN MARY AND WESTFIELD COLLEGE, published 2016).

Experiments:
[1] = molecular target: T1, free radical modified BSA (bovine, UniProt P02769 25-607, modified as CII (OH, HOCl, ONOO or 2M ribose); residues not stated); assay: ELISA (data not shown)
T1 construct: Written as printed, as one entry

[2] = molecular target: T2, native bovine serum albumin (bovine, UniProt P02769 25-607); assay: ELISA (data not shown)
T2 construct: Control antigen; also called BSA; native BSA

[3] = molecular target: T3, peroxynitrated CII (bovine, UniProt P02459 201-1214, modified with peroxynitrite (ONOO); residues not stated); assay: ELISA, purified scFv on coated antigen
T3 construct: also called CII modified with ONOO; peroxynitrite-modified CII
Method: (§1) Screening for positive anti-modified CII phage clones was first performed by enzyme-linked immunosorbent assay (ELISA), as previously described (Harrison J. L, 1996). Microtiter plate (Nunc, Paisley, UK) wells were coated with 10 μg/ml native or modified CII and incubated with 100 μl phage suspension for 90 minutes. In addition, native and modified BSA were used as negative control. After removal of the supernatants, the amount of bound phage was determined using peroxidase-labeled anti-M13 antibodies (GE Healthcare: Ltd, Little Chalfont, Buckinghamshire) and developed by using 100 mM 3,3′5,5′ tetramethylbenzidine (TMB) as substrate. The reaction was monitored in an ELISA reader at 450 nm with a reference wavelength of 650 nm using GENios plate reader (TECAN, Theale Court, Reading UK) and Magellan software (TECAN, Theale Court, Reading UK)
(§2) The reactive phage clones obtained from E. coli TG-1 bacteria were used to infect E. coli HB2151 non-suppressor bacterial strain to obtain soluble scFv. […] Binding of purified scFv to modified CII was first analyzed by ELISA as above except that mouse anti-myc tag antibody (Santa Cruz Biotechnology, INC, Wembley, UK) followed by anti-mouse-HRP conjugate (Sigma, Dorset, UK) were used to probe bound scFv.

[4] = molecular target: T4, HOCl modified CII (bovine, UniProt P02459 201-1214, modified with HOCl; residues not stated); assay: ELISA, purified scFv on coated antigen
T4 construct: also called HOCl-CII; HOCl-Collagen II
Method: as §1, §2

[5] = molecular target: T5, ribose-modified CII (bovine, UniProt P02459 201-1214, glycated with 2M ribose, overnight at 37 C; residues not stated); assay: ELISA, purified scFv on coated antigen
T5 construct: also called Ribose-CII; glycated CII
Method: as §1, §2

[6] = molecular target: T6, native non-modified collagen type II (CII) (bovine, UniProt P02459 201-1214); assay: ELISA, purified scFv on coated antigen
T6 construct: also called native CII
Method: as §1, §2

Measured: binding result

T1 sequence (P02769 25-607 limits assumed): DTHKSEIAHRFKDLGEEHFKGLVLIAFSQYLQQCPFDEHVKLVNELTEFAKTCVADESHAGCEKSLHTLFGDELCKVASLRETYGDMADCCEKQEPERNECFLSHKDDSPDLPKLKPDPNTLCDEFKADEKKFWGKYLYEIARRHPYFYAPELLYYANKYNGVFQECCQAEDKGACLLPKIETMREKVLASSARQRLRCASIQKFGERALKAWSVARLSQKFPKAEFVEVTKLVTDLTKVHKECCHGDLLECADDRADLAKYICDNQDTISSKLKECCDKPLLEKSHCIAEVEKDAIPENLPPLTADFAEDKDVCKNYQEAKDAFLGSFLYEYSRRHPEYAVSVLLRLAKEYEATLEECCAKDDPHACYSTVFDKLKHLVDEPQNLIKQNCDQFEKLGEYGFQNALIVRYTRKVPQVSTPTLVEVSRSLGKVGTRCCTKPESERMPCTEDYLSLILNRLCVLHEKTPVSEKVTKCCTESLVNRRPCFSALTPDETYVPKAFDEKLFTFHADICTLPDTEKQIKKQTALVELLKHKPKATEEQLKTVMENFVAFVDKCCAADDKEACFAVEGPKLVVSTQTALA
T2 sequence (P02769 25-607 limits assumed): as above
T5 sequence (P02459 201-1214): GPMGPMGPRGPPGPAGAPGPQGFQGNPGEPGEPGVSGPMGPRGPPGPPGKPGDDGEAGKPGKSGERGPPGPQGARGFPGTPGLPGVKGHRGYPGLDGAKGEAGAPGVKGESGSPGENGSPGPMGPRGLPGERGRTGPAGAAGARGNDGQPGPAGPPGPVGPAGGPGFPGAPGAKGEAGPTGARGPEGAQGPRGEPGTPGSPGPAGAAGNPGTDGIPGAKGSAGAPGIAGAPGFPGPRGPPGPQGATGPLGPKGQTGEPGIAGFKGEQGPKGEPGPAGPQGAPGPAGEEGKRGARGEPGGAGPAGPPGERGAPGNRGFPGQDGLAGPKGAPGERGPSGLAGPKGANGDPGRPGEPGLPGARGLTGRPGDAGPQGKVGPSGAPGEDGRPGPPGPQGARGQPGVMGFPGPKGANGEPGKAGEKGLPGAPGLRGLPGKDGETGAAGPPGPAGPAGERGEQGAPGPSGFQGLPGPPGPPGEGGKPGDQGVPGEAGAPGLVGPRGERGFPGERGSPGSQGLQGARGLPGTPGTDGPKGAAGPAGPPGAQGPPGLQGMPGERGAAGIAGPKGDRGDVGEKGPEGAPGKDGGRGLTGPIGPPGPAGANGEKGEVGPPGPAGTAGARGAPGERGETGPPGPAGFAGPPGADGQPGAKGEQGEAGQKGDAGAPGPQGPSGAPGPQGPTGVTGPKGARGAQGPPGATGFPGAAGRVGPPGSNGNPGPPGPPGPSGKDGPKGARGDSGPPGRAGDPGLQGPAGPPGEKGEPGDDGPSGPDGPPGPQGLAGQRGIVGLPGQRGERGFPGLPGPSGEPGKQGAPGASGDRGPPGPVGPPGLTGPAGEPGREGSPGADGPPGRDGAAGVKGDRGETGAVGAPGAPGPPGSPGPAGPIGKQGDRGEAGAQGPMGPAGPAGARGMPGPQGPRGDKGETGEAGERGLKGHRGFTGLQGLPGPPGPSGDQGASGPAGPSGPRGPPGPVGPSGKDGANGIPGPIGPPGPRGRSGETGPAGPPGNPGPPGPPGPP
T3 sequence (P02459 201-1214): as above
T4 sequence (P02459 201-1214): as above
T6 sequence (P02459 201-1214): as above

B1: scFv 12E (scFv, not shown: small tags and cut ends)
scFv: EVQLLESGGGLVQPGGSLRLSCAASGFTFSSYAMSWVRQAPGKGLEWVSSINDSGTTTYYADSVKGRFTISRDNSKNTLYLQMNSLRAEDTAVYYCAKNYSAFDYWGQGTLVTVSSGGGGSGGGGSGGGGSTDIQMTQSPSSLSASVGDRVTITCRASQSISSYLNWYQQKPGKAPKLLIYAASDLQSGVPSRFSGSGSGTDFTLTISSLQPEDFATYYCQQSDSAPTTFGQGTKVEIKR
notes: Purified soluble scFv; also called clone 12E
no binding: all assays above

B2: scFv 1-11E (scFv, not shown: large carriers; small tags and cut ends)
scFv: EVQLLESGGGLVQPGGSLRLSCAASGFTFSSYAMSWVRQAPGKGLEWVSSIDDSGATTYYADSVKGRFTISRDNSKNTLYLQMNSLRAEDTAVYYCAKNYSSFDYWGQGTLVTVSSGGGGSGGGGSGGGGSTDIQMTQSPSSLSASVGDRVTITCRASQSISSYLNWYQQKPGKAPKLLIYYASSLQSGVPSRFSGSGSGTDFTLTISSLQPEDFATYYCQQAANYPTTFGQGTKVEIK
notes: its first MA and last DI may come from cloning into the fusion; also called clone 1-11E; 1-2F
no binding: [1] | [2]

B3: scFv 6-11D (scFv, not shown: small tags and cut ends)
scFv: EVQLLESGGGLVQPGGSLRLSCAASGFTFSSYAMSWVRQAPGKGLEWVSSIDTGGSYTDYADSVKGRFTISRDNSKNTLYLQMNSLRAEDTAVYYCAKSYTTFDYWGQGTLVTVSSGGGGSGGGGSGGGGSTDIQMTQSPSSLSASVGDRVTITCRASQSISSYLNWYQQKPGKAPKLLIYSASYLQSGVPSRFSGSGSGTDFTLTISSLQPEDFATYYCQQGSNSPTTFGQGTKVEIKR
notes: also called clone 6-11D; 4-5H
no binding: [1] | [2]
